Assay results reported in ChEMBL document CHEMBL2074115, “Anthracyclines modulate multidrug resistance protein (MRP) mediated organic anion transport” (Biochim Biophys Acta, 1997).

Experiments:
[1] = substrate: N[C@@H](CCC(=O)N[C@@H](CSSC[C@H](NC(=O)CC[C@H](N)C(=O)O)C(=O)NCC(=O)O)C(=O)NCC(=O)O)C(=O)O; experiment: (§1) TP_TRANSPORTER: uptake in membrane vesicles from GLC4/ADR cells; assay type: functional, cell membranes, GLC-4/ADR, Membrane vesicle
[2] = substrate: N[C@@H](CCC(=O)N[C@H](CSc1ccc([N+](=O)[O-])cc1[N+](=O)[O-])C(=O)NCC(=O)O)C(=O)O; experiment: as §1; assay type: functional, cell membranes, GLC-4/ADR, Membrane vesicle

B1: Multidrug resistance-associated protein 1 (Homo sapiens) (protein)
chain: MALRGFCSADGSDPLWDWNVTWNTSNPDFTKCFQNTVLVWVPCFYLWACFPFYFLYLSRHDRGYIQMTPLNKTKTALGFLLWIVCWADLFYSFWERSRGIFLAPVFLVSPTLLGITMLLATFLIQLERRKGVQSSGIMLTFWLVALVCALAILRSKIMTALKEDAQVDLFRDITFYVYFSLLLIQLVLSCFSDRSPLFSETIHDPNPCPESSASFLSRITFWWITGLIVRGYRQPLEGSDLWSLNKEDTSEQVVPVLVKNWKKECAKTRKQPVKVVYSSKDPAQPKESSKVDANEEVEALIVKSPQKEWNPSLFKVLYKTFGPYFLMSFFFKAIHDLMMFSGPQILKLLIKFVNDTKAPDWQGYFYTVLLFVTACLQTLVLHQYFHICFVSGMRIKTAVIGAVYRKALVITNSARKSSTVGEIVNLMSVDAQRFMDLATYINMIWSAPLQVILALYLLWLNLGPSVLAGVAVMVLMVPVNAVMAMKTKTYQVAHMKSKDNRIKLMNEILNGIKVLKLYAWELAFKDKVLAIRQEELKVLKKSAYLSAVGTFTWVCTPFLVALCTFAVYVTIDENNILDAQTAFVSLALFNILRFPLNILPMVISSIVQASVSLKRLRIFLSHEELEPDSIERRPVKDGGGTNSITVRNATFTWARSDPPTLNGITFSIPEGALVAVVGQVGCGKSSLLSALLAEMDKVEGHVAIKGSVAYVPQQAWIQNDSLRENILFGCQLEEPYYRSVIQACALLPDLEILPSGDRTEIGEKGVNLSGGQKQRVSLARAVYSNADIYLFDDPLSAVDAHVGKHIFENVIGPKGMLKNKTRILVTHSMSYLPQVDVIIVMSGGKISEMGSYQELLARDGAFAEFLRTYASTEQEQDAEENGVTGVSGPGKEAKQMENGMLVTDSAGKQLQRQLSSSSSYSGDISRHHNSTAELQKAEAKKEETWKLMEADKAQTGQVKLSVYWDYMKAIGLFISFLSIFLFMCNHVSALASNYWLSLWTDDPIVNGTQEHTKVRLSVYGALGISQGIAVFGYSMAVSIGGILASRCLHVDLLHSILRSPMSFFERTPSGNLVNRFSKELDTVDSMIPEVIKMFMGSLFNVIGACIVILLATPIAAIIIPPLGLIYFFVQRFYVASSRQLKRLESVSRSPVYSHFNETLLGVSVIRAFEEQERFIHQSDLKVDENQKAYYPSIVANRWLAVRLECVGNCIVLFAALFAVISRHSLSAGLVGLSVSYSLQVTTYLNWLVRMSSEMETNIVAVERLKEYSETEKEAPWQIQETAPPSSWPQVGRVEFRNYCLRYREDLDFVLRHINVTINGGEKVGIVGRTGAGKSSLTLGLFRINESAEGEIIIDGINIAKIGLHDLRFKITIIPQDPVLFSGSLRMNLDPFSQYSDEEVWTSLELAHLKDFVSALPDKLDHECAEGGENLSVGQRQLVCLARALLRKTKILVLDEATAAVDLETDDLIQSTIRTQFEDCTVLTIAHRLNTIMDYTRVIVLDKGEIQEYGAPSDLLQQRGLFYSMAKDAGLV
- Km [1]: 43 µM
- Km [2]: 1.2 µM
